Patent US7053177B1, “Random peptides that bind to gastro-intestinal tract (GIT) transport receptors and related methods” (Cytogen Corporation, priority 1997, dated 2006)
Square brackets hold non-standard residues; d marks the D form. Ends that are not written are not given here. Peptide text beside a SMILES is read from it. * marks the point of attachment. Dansyl = CN(C)c1cccc2c(S(=O)(=O)*)cccc12

T1: recombinant D2H receptor domain (human D2H transporter, amino acid residues 387-685), His-tag fusion protein (human) (UniProt Q07837)
T1 sequence: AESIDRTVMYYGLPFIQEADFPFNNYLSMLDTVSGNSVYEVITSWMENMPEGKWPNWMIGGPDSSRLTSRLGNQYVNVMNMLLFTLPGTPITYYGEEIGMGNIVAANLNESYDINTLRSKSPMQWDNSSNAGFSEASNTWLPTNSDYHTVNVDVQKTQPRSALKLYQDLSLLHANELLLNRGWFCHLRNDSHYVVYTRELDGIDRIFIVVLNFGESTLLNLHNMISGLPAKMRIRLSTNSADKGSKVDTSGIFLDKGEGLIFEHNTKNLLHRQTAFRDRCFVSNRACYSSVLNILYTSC


What was measured:
[1] = target: BSA (Bos taurus, UniProt P02769); test: Receptor ELISA of phage on BSA (background control protein); assay type: binding; conditions: Table 5; phage panned on HPT-1
Description: 96 well plates were coated overnight with GIT receptor, BSA and, optionally, IDE (insulin degrading enzyme, an irrelevant His-fusion protein)or hTF. The plates were blocked for one hour with 0.5% BSA-PBS. After clarification, the amplified phage were diluted 1:100 in 1% BSA plus 0.05% Tween 20 in PBS and added to the plates. Following incubation of the plates on a rotator for 1 to 2 hours, the plates were washed 5 times with 1% BSA plus 0.05% Tween 20 in PBS. Dilute anti-M13-HRP conjugate (anti-M13 antibody linked to horse radish peroxidase (HRP)) was added to all the wells and the plate was incubated for one hour on a rotator. After the plates were washed 5 times, as described above, TMB substrate was added to the wells. The plates were read at 650 nm absorbance.

[2] = system: rat gastro-intestinal tract (closed loop); test: Transport of preselected phage libraries in rat closed loop, detected by oligonucleotide hybridization/autoradiography; conditions: HPT1 pool; in words; PAX2 used at 4x concentration
Description: Four preselected phage libraries, GI-D2H, GI-hSI, GI-HPT1 and GI-hPEPT1, were constructed by pooling phage previously selected by screening random phage display libraries D38 and DC43 using the HPT1, HPEPT1, D2H and hSI receptor or binding sites located in the GIT.
In particular, phages selected in vitro to each receptor or binding site located in the GIT were amplified in E. coli, PEG-precipitated, resuspended in TBS and the titer of each phage sample was determined by plaquing in E. coli as described above. […] Using the in situ loop model described above, 0.5 ml of preselected phage library solution was injected into the tied-off portion of the duodenum/jejunum. Blood was collected into heparinized tubes from the portal vein at 0, 15, 30, 45 and 60 minutes. A blood sample was taken from the systemic circulation at the end of the experiment. Similarly, the portion of the duodenum/jejunum used for phage injection was taken at the end of the experiment.
Thirty microliters of the collected portal blood (neat and 10^−2, 10^−1, 10^−6 dilutions) was added to 30 μl E. coli K91Kan cells (overnight culture) and incubated at 37° C. for 10 min. Subsequently, 3 ml of top agarose was added and the samples were plated for plaques. One hundred microliters of the collected portal blood was added to 100 μl of E. coli K91Kan. Five milliliters of LB medium was then added and the samples were incubated at 37° C. overnight in a rotating microbial incubator. The E. coli was removed by centrifugation and the amplified phage supernatant samples were either titered directly or were PEG-precipitated, resuspended in TBS and titered. Following titration of the amplified phage, samples containing phage from each set of animals were combined, adjusting the titer of each sample to the same titer, and were plated for plaques on LB agar lates (22 cm^2 square plates). Either 12,000 or 24,000 phage were lated for plaques.
Thirty microliters of the collected systemic blood (neat and 10^−2, 10^−1, 10^−6 dilutions) was added to E. coli K91Kan cells, incubated at 37° C. for 10 min. Three ml of top agarose was then added and the samples were plated for plaques. One hundred microliters of the collected systemic blood was added to 100 μl of E. coli K91Kan, incubated at 37° C. for 10 min. Five milliliters of LB medium was then added and the samples were incubated at 37° C. overnight in a rotating microbial incubator. The E. coli was removed by centrifugation and the amplified phage supernatant samples were either titered directly or were PEG-precipitated, resuspended in TBS and titered. Following titration of the amplified phage, samples containing phage from each set of animals were combined, adjusting the titer of each sample to the same titer, and were plated for plaques on LB agar plates (22 cm^2 square plates). Either 12,000 or 24,000 phage were plated for plaques.
The intestinal tissue portion used in each closed loop was excised. […] Alternatively, the tissue (in PBS supplemented with protease inhibitors) was homogenized in an Ultra Thorex homogenizer, washed 3 times in PBS containing protease inhibitors and resuspended in PBS containing protease inhibitors (Int-G samples). In each case, serial dilutions (neat and 10^−2, 10^−4, 10^−6 dilutions) of the tissue homogenate was titered in E. coli.
The phage amplified from the portal blood, systemic blood and intestinal tissue was plated for plaques. […] The filters were air-dried, and the DNA was cross-linked to the filter (UV crosslinking: 2 min, high setting). The filters were incubated in pre-hybridization buffer (6×SSC, 5× Denhardt's solution, 0.1% SDS, […] yeast tRNA) at 40° C.–45° C. for at least 60 min.
Synthetic oligonucleotides, (22-mers), complimentary to regions coding for the receptor or binding sites used to create the preselected phage library, were synthesized (see Table 14 below).

[3] = system: P100 membrane fraction of Caco-2 cells; test: Binding of dansylated peptides to P100 fractions (peptide/particle correlation)
Description: Caco-2 cell membrane (P100) and cytosolic (S100) fractions were prepared using a modification of the method described in Kinsella, B. T., O'Mahony, D. J. and G. A. FitzGerald, 1994, J. Biol. Chem. 269(47): 29914–29919. Confluent Caco-2 cell monolayers (grown in 75 cm^2 flasks for up to 1 week at 37° C. and 5% CO2) were washed twice in Dulbecco's PBS (DPBS) and the cells were harvested by centrifugation at 1000 rpm after treatment with 10 mM EDTA-DPBS. The cells were washed 3 times in DPBS and the final cell pellet was resuspended in 3 volumes of ice cold HED buffer (20 mM HEPES (pH 7.67), 1 mM EGTA, 0.5 mM dithiothreitol, 1 mM phenylmethylsulphonyl fluoride (PMSF)). The cells were allowed to swell for 5 min on ice prior to homogenization for 30 sec. The homogenates were centrifuged at 40,000 rpm for 45 min at 4° C. The supernatant (S100) was removed and the pellet (P100) was resuspended in HEDG buffer (20 mM HEPES (pH 7.67), 1 mM EGTA, 0.5 mM dithiothreitol, 100 mM NaCl, 10% glycerol, 1 mM PMSF). Protein concentrations were determined using the Bradford assay (Bradford, M. M., 1976, Anal. Biochem. 72: 248–254).
Binding of peptide and/or peptide-coated PLGA particles to membrane (P100) and cytosolic (S100) fractions was assessed by detection of the dansyl moiety incorporated in the peptide. Costar ninety six well ELISA plates were coated with S100 and P100 fractions (100 μg/ml in 0.05 M NaHCO3) overnight at 4° C. The plates were blocked with 0.5% bovine serum albumin in DPBS for 1 h at room temperature and washed 3 times in 1% BSA-DPBS. Peptide-coated particles or peptides were dispersed in the same buffer and added to the plates at concentrations in the range 0.0325–0.5 mg/well. […] The plates were incubated for 1 h at room temperature. The wells were washed 3 times in 1% BSA-DPBS and 100 μl of goat anti-mouse IgGλ:HRP antibody (Southern Biotechnology 1060-05; 1:10,000) was added per well. The plates were incubated for 1 h at room temperature. After washing 3 times in 1% BSA-DPBS 100 μl of TMB substrate (3,3′,5′,5-tetramethylbenzidine; Microwell Peroxidase Substrate System (Kirkegaard and Perry Laboratories 50-76-00)) was added and the optical density was measured at 650 nm at various time intervals.
Binding of dansylated peptides to P100 fractions was assessed to determine if peptide binding was predictive of peptide-coated particle binding.

[4] = Peptide stability in simulated intestinal fluid (SIF); assay type: in vitro ADME; conditions: rank of relative stability to SIF
Description: Peptide (3.25 mg) was dissolved in 3.25 ml of 10,000 fold diluted SIF solution at 37° C. Aliquots (0.7 ml) of the digestion solution were then withdrawn at <1 min, 1h, 3h, and 21h or 24h. The samples were quickly passed through a syringe filter (Millipore Millex-GV 0.22 μm, part# SLGV025LS, lot# H2BM95250) and 300 μL of the filtered solution was immediately injected onto a Hewlett-Packard HPLC system equipped with a C-8 column (Applied Biosystems column and guard column: column-p/n 0711-0023 Spheri-5 ODS 5 μm, 220×4.6 mm). The products were eluted at 1.5 ml/min using an acetonitrile-water gradient. The major fluorescent peaks were collected, lyopholized and identified by MS analysis.

[5] = system: P100 membrane fraction of Caco-2 cells; test: Dansylated peptide ELISA: relative binding of PAX2 and HAX42 peptides to P100 fractions (ratio to ZElan021); conditions: PAX2 peptides, first column, ratio to ZElan021 = 1.00
In short: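 Plates coated overnight at 4 °C with Caco-2 P100 membrane fraction (normally 100 μg/ml, pH 9.6) and blocked with 2% Marvel/PBS were incubated with dansylated peptides. Binding was detected with anti-mouse λ-HRP and TMB, read at 650 nm, and expressed relative to ZElan021.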

[6] = target: T1, recombinant D2H receptor domain (human D2H transporter, amino acid residues 387-685), His-tag fusion protein (human); test: phage ELISA on coated D2H
[7] = target: bovine serum albumin (bovine) (UniProt P02769); test: phage ELISA on coated BSA
[8] = target: T1, recombinant D2H receptor domain (human D2H transporter, amino acid residues 387-685), His-tag fusion protein (human); test: phage ELISA, OD on D2H over OD on BSA

bovine serum albumin (bovine), sequence (P02769 25-607 limits assumed): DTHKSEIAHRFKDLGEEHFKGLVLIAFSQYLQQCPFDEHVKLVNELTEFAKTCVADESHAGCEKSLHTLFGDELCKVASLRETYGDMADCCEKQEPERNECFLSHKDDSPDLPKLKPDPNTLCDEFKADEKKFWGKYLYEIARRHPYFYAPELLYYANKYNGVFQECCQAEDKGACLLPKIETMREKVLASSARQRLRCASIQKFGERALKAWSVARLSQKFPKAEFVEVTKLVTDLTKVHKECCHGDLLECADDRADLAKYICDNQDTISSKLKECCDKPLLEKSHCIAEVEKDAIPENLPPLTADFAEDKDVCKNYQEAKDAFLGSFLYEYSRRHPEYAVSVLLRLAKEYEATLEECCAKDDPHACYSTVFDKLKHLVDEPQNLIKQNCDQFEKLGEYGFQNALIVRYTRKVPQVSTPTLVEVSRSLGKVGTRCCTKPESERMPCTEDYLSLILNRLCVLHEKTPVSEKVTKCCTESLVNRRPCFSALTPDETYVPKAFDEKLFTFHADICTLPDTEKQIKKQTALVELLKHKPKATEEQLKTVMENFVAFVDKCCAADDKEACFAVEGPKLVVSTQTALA
BSA, sequence (P02769 25-607): as the sequence (P02769 25-607 limits assumed) above

| Molecule | Rel. Stab. [4] | OD [6] | OD [7] | D2H/BSA [8] | also measured |
| --- | --- | --- | --- | --- | --- |
| SDHALGTNLRSDNAKEPGDYNCCGNGNSTGRKVFNRRRPSAIPT (not fully specified; cysteine pairing not given here) [HAX42] |  |  |  |  | BSA [1]: 0.071 OD; Presence in the portal or systemic circulation [2]: found in the portal and systemic circulation; Peptide/particle binding correlation ([3]; in words): correlated well |
| C[C@@H](O)[C@H](NC(=O)[C@@H](N)CCCCNS(=O)(=O)c1cccc2c(N(C)C)cccc12)C(=O)N[C@@H](CCCNC(=N)N)C(=O)N[C@@H](CCCCN)C(=O)N[C@@H](CO)C(=O)N[C@@H](CO)C(=O)N[C@@H](CCCNC(=N)N)C(=O)N[C@@H](CO)C(=O)N[C@@H](CC(N)=O)C(=O)N1CCC[C@H]1C(=O)N[C@@H](CCCNC(=N)N)C(=O)NCC(=O)N[C@@H](CCCNC(=N)N)C(=O)N[C@@H](CCCNC(=N)N)C(=O)N[C@@H](Cc1c[nH]cn1)C(=O)N1CCC[C@H]1C(=O)NCC(N)=O [ZElan031] (H-K(Dansyl)TRKSSRSNPRGRRHPG-NH2) | 3 |  |  |  |  |
| H-K(Dansyl)STPPSREAYSRPYSVDSDSDTNAKHSSHNRRLRTRSRPNG-NH2 [ZElan018] |  |  |  |  | Binding of dansylated peptide to P100 fraction ([3]; repeat assay, compared with scrambled PAX2 control): indistinguishable from the scrambled PAX2 control; Binding value at 20 μg/ml ([5]; 20 μg/ml): −0.33; Binding value at 50 μg/ml ([5]; 50 μg/ml): 0.95 |
| C[C@@H](O)[C@H](NC(=O)[C@@H](N)CCCCNS(=O)(=O)c1cccc2c(N(C)C)cccc12)C(=O)N[C@H](CCCNC(=N)N)C(=O)N[C@@H](CCCCN)C(=O)N[C@@H](CO)C(=O)N[C@@H](CO)C(=O)N[C@H](CCCNC(=N)N)C(=O)N[C@@H](CO)C(=O)N[C@@H](CC(N)=O)C(=O)N1CCC[C@H]1C(=O)N[C@H](CCCNC(=N)N)C(=O)NCC(=O)N[C@H](CCCNC(=N)N)C(=O)N[C@H](CCCNC(=N)N)C(=O)N[C@@H](Cc1c[nH]cn1)C(=O)N1CCC[C@H]1C(=O)NCC(N)=O [ZElan053, H2N-K(dns)TrKSSrSNPrGrrHPG-CONH2] (H-K(Dansyl)T[dR]KSS[dR]SNP[dR]G[dR][dR]HPG-NH2) | 1 |  |  |  |  |
| C[C@@H](O)[C@H](NC(=O)[C@@H](N)CCCCNS(=O)(=O)c1cccc2c(N(C)C)cccc12)C(=O)N[C@@H](CCCNC(=N)N)C(=O)N[C@@H](CCCCN)C(=O)N[C@@H](CO)C(=O)N[C@@H](CO)C(=O)N[C@H](CCCNC(=N)N)C(=O)N[C@@H](CO)C(=O)N[C@@H](CC(N)=O)C(=O)N1CCC[C@H]1C(=O)N[C@@H](CCCNC(=N)N)C(=O)NCC(=O)N[C@H](CCCNC(=N)N)C(=O)N[C@@H](CCCNC(=N)N)C(=O)N[C@@H](Cc1c[nH]cn1)C(=O)N1CCC[C@H]1C(=O)NCC(N)=O [ZElan054, H2N-K(dns)TRKSSrSNPRGrRHPG-CONH2] (H-K(Dansyl)TRKSS[dR]SNPRG[dR]RHPG-NH2) | 2 |  |  |  |  |
| RYKHDIGCDAGVDKKSSSVRGGCGAHSSPPRAGRGPRGTMVSRL [phage DCX8] |  | 0.163 OD 650 nm | 0.063 OD 650 nm | 3 |  |
| SQGSKQCMQYRTGRLTVGSEYGCGMNPARHATPAYPARLLPRYR [phage DCX11] |  | 0.222 OD 650 nm | 0.071 OD 650 nm | 3 |  |
| RYSGLSPRDNGPACSQEATLEGCGAQRLMSTRRKGRNSRPGWTL [phage DCX42] |  | 0.158 OD 650 nm | 0.065 OD 650 nm | 2 |  |
